Paper PMC4440780, “Turning Escherichia coli into a Frataxin-Dependent Organism” (PLoS Genetics, 2015)

Columns and labels:
[1] = target: T1, IscU_(I108M)-(his)6, E. coli IscU with the Ile108Met substitution (E. coli, UniProt P0ACD4 1-128, I108M); assay: co-elution on anion exchange chromatography (QFF); purified His-tagged proteins mixed anaerobically 1:1:1 (144 uM each) for 40 min with 4-fold excess Fe(SO4)2(NH4)2, 10-fold excess L-cysteine, 5 mM DTT in 50 mM Tris-HCl pH 8; loaded on a 1-mL QFF column, eluted with a gradient to 1 M NaCl; fractions analysed by SDS-PAGE; the single proteins elute at lower salt; settings: both partners purified
T1 construct: IscU, Fe-S cluster scaffold protein of E. coli K-12 MG1655; coding region amplified from pIscUIM and cloned NdeI/HindIII into pET21a+; the methods say the proteins were mixed with Fe(SO4)2(NH4)2, L-cysteine and DTT; By gel filtration it exists mainly as a dimer; also called IscUIM; His-tagged IscUIM; not shown: His6, C-terminal, kept

[2] = target: T2, (his)6-IscS, E. coli cysteine desulfurase IscS (E. coli, UniProt P0A6B7 1-404); assay: as above; settings: both partners purified
T2 construct: IscS, cysteine desulfurase of E. coli; not shown: His6, N-terminal, kept

B1: CyaY-(his)6, E. coli frataxin homolog CyaY (natural protein, UniProt P27838 1-106, looked up)
chain: MNDSEFHRLADQLWLTIEERLDDWDGDSDIDCEINGGVLTITFENGSKIIINRQEPLHQVWLATKQGGYHFDLKGDEWICDRSGETFWDLLEQAATQQAGETVSFR
notes: CyaY, frataxin homolog of E. coli; not shown: His6, C-terminal, kept
binding result [1]: binds
binding result [2]: binds
